According to US20260151494A1 (ARO BIOTHERAPEUTICS, published 2026):
Substitutions are numbered along the chain they refer to.

B1: CD71-binding FN3 domain of SEQ ID NO: 347 (designed binder)
chain: MLPAPKNLVVSRVTEDSARLSWTAPDAAFDSFFIGYLEPQPPGEAIGLFVPGSERSYDLTGLKPGTEYNVTIQGVKGGFPSEPLKAAFTT
B2: CD71-binding FN3 domain of SEQ ID NO: 410 (designed binder)
chain: B1 chain with G47A, F49W, E82Q, K85H, A87H
B3: CD71-binding FN3 domain of SEQ ID NO: 479 (designed binder)
chain: B1 chain with G47N, F49W, E82T, K85F, A87G
B4: CD71-binding FN3 domain of SEQ ID NO: 445 (designed binder)
chain: B1 chain with G47H, E82D, K85V, A87S
B5: CD71-binding FN3 domain of SEQ ID NO: 370 (designed binder)
chain: MLPAPKNLVVSRVTEDSARLSWTAPDAAFDSFYIAYAEPRPDGEAIVLVVPGSERSYDLTGLKPGTEYSVLIHGVKGGLLSSPLSAHFTT
B6: CD71-binding FN3 domain of SEQ ID NO: 469 (designed binder)
chain: B1 chain with G47H, F49Y, E82L, K85V, A87T
B7: CD71-binding FN3 domain of SEQ ID NO: 491 (designed binder)
chain: B1 chain with P42S, G47H, F49I, E82D, K85V, A87S
B8: CD71-binding FN3 domain of SEQ ID NO: 497 (designed binder)
chain: B1 chain with G47T, F49L, E82K, K85Y, A87Y
B9: CD71-binding FN3 domain of SEQ ID NO: 527 (designed binder)
chain: B1 chain with G47H, F49Y, K85I, A87N
B10: CD71-binding FN3 domain of SEQ ID NO: 112 (designed binder)
chain: B1 chain with G47D, F49W, E82M, K85S, A87I
notes: Screen 1 hit, tested from colonies in the primary ELISA; not shown: C-terminal poly-histidine tag added to each FN3 domain
B11: CD71-binding FN3 domain of SEQ ID NO: 104 (designed binder)
chain: B1 chain with G47H, F49I, L62Q, E82D, K85V, A87S
notes: as for B10
B12: CD71-binding FN3 domain of SEQ ID NO: 107 (designed binder)
chain: B1 chain with F49Q, E82M, K85S, A87I
notes: as for B10
B13: CD71-binding FN3 domain of SEQ ID NO: 109 (designed binder)
chain: B1 chain with G47I, F49H, E82L, K85N, A87N
notes: as for B10
B14: CD71-binding FN3 domain of SEQ ID NO: 111 (designed binder)
chain: B1 chain with G47S, F49W, E82I, K85W, A87I
notes: as for B10
B15: CD71-binding FN3 domain of SEQ ID NO: 113 (designed binder)
chain: B1 chain with G47Y, F49L, E82D, K85S, A87I
notes: as for B10
B16: CD71-binding FN3 domain of SEQ ID NO: 115 (designed binder)
chain: B1 chain with G47D, F49Y, T66I, E82L, K85Q, A87H
notes: as for B10
B17: CD71-binding FN3 domain of SEQ ID NO: 117 (designed binder)
chain: B1 chain with G47W, F49L, E82T, K85S, A87I
notes: as for B10
B18: CD71-binding FN3 domain of SEQ ID NO: 100 (designed binder)
chain: B5 chain with V47L, V49L, S85V, H87S
notes: as for B10
B19: CD71-binding FN3 domain of SEQ ID NO: 103 (designed binder)
chain: B5 chain with V47I, V49G, H87Y, F88S
notes: as for B10
B20: CD71-binding FN3 domain of SEQ ID NO: 106 (designed binder)
chain: B5 chain with A28V, V47G, V49Y, S85T, H87S
notes: as for B10
B21: CD71-binding FN3 domain of SEQ ID NO: 108 (designed binder)
chain: B5 chain with V47L, V49Q, S85V, H87K
notes: as for B10
B22: CD71-binding FN3 domain of SEQ ID NO: 116 (designed binder)
chain: B5 chain with V47L, V49L, S85I, H87G
notes: as for B10
B23: CD71-binding FN3 domain of SEQ ID NO: 118 (designed binder)
chain: B5 chain with V47T, V49W, L71T, H87I
notes: as for B10
B24: CD71-binding FN3 domain SEQ ID NO: 333 (designed binder)
chain: MSLPAPENLVVSRVTEDSARLSWTAPDAAFDSFFIGYLEPQPPGEAIALYVPGSERSYDLTGLKPGTEYNVTIQGVKGGFPSLPLVATFTT
B25: CD71-binding FN3 domain SEQ ID NO: 332 (designed binder)
chain: MSLPAPKNLVVSRVTEDSARLSWTAPDAAFDSFEIGYWEGPGGGEAIILVVPGSERSYDLTGLKPGTEYYVQIGGVKGGDWSTPLWATFTT
B26: CD71-binding FN3 domain of SEQ ID NO: 101 (designed binder)
chain: MLPAPKNLVVSRVTEDSARLSWTAPDAAFDSFGIGYWERRWYGEAIVLTVPGSERSYDLTGLKPGTEYEVTIRGVKGGGYSGPLSAIFTT
notes: as for B10
B27: CD71-binding FN3 domain of SEQ ID NO: 102 (designed binder)
chain: MLPAPKNLVVSRVTEDSARLSWTAPDAAFDSFDIGYTEYGGYGEAIILQVPGSERSYDLTGLKPGTEYWVLIQGVKGGGSSVPLVAYFTT
notes: as for B10
B28: CD71-binding FN3 domain of SEQ ID NO: 105 (designed binder)
chain: MLPAPKNLVVSRVTEDSARLSWTAPDAAFDSFHIVYHEPRPSGEAIWLWVPGSERSYDLTGLKPGTEYEVGIVSVKGGDLSVPLSAIFTT
notes: as for B10
B29: CD71-binding FN3 domain of SEQ ID NO: 110 (designed binder)
chain: B28 chain with W47Y, W49E, S85R, I87H
notes: as for B10
B30: CD71-binding FN3 domain SEQ ID NO: 240 (designed binder)
chain: MSLPAPKNLVVSRVTEDSARLSWTAPDAAFDSFHIWYFEKANEGEAIPLVVPGSERSYDLTGLKPGTEYDVDIGGVKGGAWSIPLGARFTT
B31: CD71-binding FN3 domain SEQ ID NO: 241 (designed binder)
chain: MSLPAPKNLVVSRVTEDSARLSWTAPDAAFDSFMIAYDEFIVWGEAVVLTVPGSERSYDLTGLKPGTEYLVEILGVKGGTISGPLSAIFTT
B32: CD71-binding FN3 domain SEQ ID NO: 245 (designed binder)
chain: B25 chain with G36S, G40H, P41T, G42F, G43N, V50F, Q72T, D80A, T83P, T88H
B33: CD71-binding FN3 domain SEQ ID NO: 267 (designed binder)
chain: B25 chain with G36S, G40H, P41T, G42F, G43N, V50F, Q72T, D80A, T83P, T88E
B34: CD71-binding FN3 domain SEQ ID NO: 253 (designed binder)
chain: MSLPAPKNLVVSRVTEDSARLSWTAPDAAFDSFDINYWENESGGEAIALFVPGSERSYDLTGLKPGTEYWVSIGGVKGGRFSEPLYARFTT
B35: CD71-binding FN3 domain SEQ ID NO: 259 (designed binder)
chain: MSLPAPKNLVVSRVTEDSARLSWTAPDAAFDSFYIAYAEPRPDGEAILLEVPGSERSYDLTGLKPGTEYSVLIHGVKGGLLSSPLSATFTT
B36: CD71-binding FN3 domain SEQ ID NO: 261 (designed binder)
chain: B35 chain with E50W, S86H, T88Y
B37: CD71-binding FN3 domain SEQ ID NO: 273 (designed binder)
chain: MLPAPKNLVVSRVTEDSARLSWTAPDAAFDSFEISYWEHTFNGEAIILFVPGSERSYDLTGLKPGTEYYVTIGGVKGGAWSPPLWAEFTT

How the values were obtained:
[1] = target: human CD71 on cells (SKBR3; SW620-rLuc-KRAS) (human, UniProt P02786 1-760); assay: cell-based or functional assay
human CD71 on cells (SKBR3; SW620-rLuc-KRAS), sequence (P02786 whole entry, the tested form may be a part): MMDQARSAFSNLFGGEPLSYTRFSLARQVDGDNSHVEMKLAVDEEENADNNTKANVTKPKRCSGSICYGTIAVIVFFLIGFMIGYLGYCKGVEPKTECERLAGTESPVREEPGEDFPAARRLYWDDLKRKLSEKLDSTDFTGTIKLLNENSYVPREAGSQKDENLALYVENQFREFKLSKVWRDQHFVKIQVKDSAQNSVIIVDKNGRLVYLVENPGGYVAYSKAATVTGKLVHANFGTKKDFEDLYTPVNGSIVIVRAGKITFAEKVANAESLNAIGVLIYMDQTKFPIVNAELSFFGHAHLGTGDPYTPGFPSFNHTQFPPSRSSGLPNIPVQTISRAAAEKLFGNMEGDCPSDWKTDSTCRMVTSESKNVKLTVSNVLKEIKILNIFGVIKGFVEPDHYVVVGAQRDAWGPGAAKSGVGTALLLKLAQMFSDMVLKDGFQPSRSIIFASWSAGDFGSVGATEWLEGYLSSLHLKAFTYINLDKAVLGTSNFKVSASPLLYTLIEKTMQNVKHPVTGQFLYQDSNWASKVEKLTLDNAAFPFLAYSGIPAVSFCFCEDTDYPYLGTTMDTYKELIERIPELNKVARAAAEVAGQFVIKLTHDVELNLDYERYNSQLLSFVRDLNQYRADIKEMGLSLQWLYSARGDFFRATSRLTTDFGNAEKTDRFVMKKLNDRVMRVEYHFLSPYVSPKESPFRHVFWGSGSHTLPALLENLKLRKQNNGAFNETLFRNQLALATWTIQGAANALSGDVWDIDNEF

[2] = target: T1, human CD71 extracellular domain (human, UniProt P02786 89-760); assay: primary ELISA of colonies, luminescence
T1 construct: also called hCD71; human CD71-ECD
T1 sequence (P02786 89-760): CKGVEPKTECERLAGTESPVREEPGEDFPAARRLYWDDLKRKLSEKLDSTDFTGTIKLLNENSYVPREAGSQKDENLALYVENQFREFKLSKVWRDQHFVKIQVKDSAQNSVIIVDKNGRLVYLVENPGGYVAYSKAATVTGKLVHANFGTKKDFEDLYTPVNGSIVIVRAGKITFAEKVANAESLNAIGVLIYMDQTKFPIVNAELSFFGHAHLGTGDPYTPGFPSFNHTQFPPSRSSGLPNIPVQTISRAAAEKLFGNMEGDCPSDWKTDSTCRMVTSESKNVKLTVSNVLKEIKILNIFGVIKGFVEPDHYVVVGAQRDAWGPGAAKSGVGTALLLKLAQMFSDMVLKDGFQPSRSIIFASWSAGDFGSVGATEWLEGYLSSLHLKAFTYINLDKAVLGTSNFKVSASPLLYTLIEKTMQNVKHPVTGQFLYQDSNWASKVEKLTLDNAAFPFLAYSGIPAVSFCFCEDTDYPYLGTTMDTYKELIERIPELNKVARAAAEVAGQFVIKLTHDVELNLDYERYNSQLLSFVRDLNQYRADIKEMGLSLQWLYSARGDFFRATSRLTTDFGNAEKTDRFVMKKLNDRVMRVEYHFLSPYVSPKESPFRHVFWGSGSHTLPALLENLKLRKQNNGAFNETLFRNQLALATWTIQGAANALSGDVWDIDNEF

[3] = target: T2, apical domain of human CD71 (human, UniProt P02786 189-383, limits assumed); assay: primary ELISA of colonies, luminescence
T2 construct: domain: apical domain; the panning antigen was 30% biotinylated; also called human apical domain of CD71
T2 sequence (P02786 189-383 limits assumed): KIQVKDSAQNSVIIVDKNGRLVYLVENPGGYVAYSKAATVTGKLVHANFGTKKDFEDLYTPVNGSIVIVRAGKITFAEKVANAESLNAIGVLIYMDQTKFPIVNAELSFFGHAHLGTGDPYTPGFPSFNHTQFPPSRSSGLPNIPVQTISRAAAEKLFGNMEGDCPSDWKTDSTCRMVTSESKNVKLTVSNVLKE

[4] = target: T1, human CD71 extracellular domain; assay: primary ELISA; signal on hCD71 over signal on HSA
[5] = target: T2, apical domain of human CD71; assay: primary ELISA; signal on apical domain over signal on HSA
[6] = target: T3, human CD71 extracellular domain (CD71-ECD) (human, UniProt P02786 89-760); assay: primary ELISA
T3 construct: also called hCD71; human CD71-ECD
T3 sequence (P02786 89-760): as the sequence (P02786 89-760) above

[7] = target: T3, human CD71 extracellular domain …; assay: primary ELISA, RLU ratio to HSA

Binder | CTG EC50 (CellTiter-Glo luminescent assay, SKBR3 cells, 72 h) [1] [nM] | hCD71, RLU [2] [RLU] | Apical domain, RLU [3] [RLU] | hCD71:HSA [4] [ratio] | Apical domain:HSA [5] [ratio] | RLU [6] [RLU] | hCD71:HSA [7]
B1 | 53.4 |  |  |  |  |  | 
B2 | 5.8 |  |  |  |  |  | 
B3 | 30.6 |  |  |  |  |  | 
B4 | 0.4 |  |  |  |  |  | 
B5 | 10.9 |  |  |  |  |  | 
B6 | 0.2 |  |  |  |  |  | 
B7 | 3.2 |  |  |  |  |  | 
B8 | 31.3 |  |  |  |  |  | 
B9 | 0.1 |  |  |  |  |  | 
B10 |  | 5.41e+06 | 4.78e+06 | 2040 | 1800 |  | 
B11 |  | 6.36e+06 | 4.43e+06 | 216 | 150 |  | 
B12 |  | 6.03e+06 | 4.23e+06 | 1860 | 1300 |  | 
B13 |  | 3.94e+06 | 3.35e+06 | 1210 | 1030 |  | 
B14 |  | 3.7e+06 | 5.04e+06 | 1420 | 1940 |  | 
B15 |  | 4.6e+06 | 5.94e+06 | 1640 | 2120 |  | 
B16 |  | 5.19e+06 | 4.58e+06 | 999 | 881 |  | 
B17 |  | 4.21e+06 | 5.33e+06 | 1120 | 1420 |  | 
B18 |  | 6.95e+06 | 6.1e+06 | 897 | 787 |  | 
B19 |  | 6.37e+06 | 5.3e+06 | 350 | 291 |  | 

Binder | CTG EC50 (CellTiter-Glo luminescent assay, SKBR3 cells, 72 h) [1] [nM] | hCD71, RLU [2] [RLU] | Apical domain, RLU [3] [RLU] | hCD71:HSA [4] [ratio] | Apical domain:HSA [5] [ratio] | RLU [6] [RLU] | hCD71:HSA [7]
B20 |  | 3.13e+06 | 4.81e+06 | 1230 | 1890 |  | 
B21 |  | 3.81e+06 | 5.77e+06 | 1140 | 1720 |  | 
B22 |  | 4.05e+06 | 6.06e+06 | 1470 | 2200 |  | 
B23 |  | 641000 | 3.75e+06 | 200 | 1170 |  | 
B24 |  |  |  |  |  | 5.32e+06 | 146
B25 |  |  |  |  |  | 1.7e+06 | 131
B26 |  | 340000 | 542000 | 78 | 125 |  | 
B27 |  | 308000 | 5.87e+06 | 68 | 1290 |  | 
B28 |  | 1.51e+06 | 3.84e+06 | 503 | 1280 |  | 
B29 |  | 5.17e+06 | 6e+06 | 2070 | 2400 |  | 
B30 |  |  |  |  |  | 3.72e+06 | 39
B31 |  |  |  |  |  | 3.4e+06 | 178
B32 |  |  |  |  |  | 3.75e+06 | 377
B33 |  |  |  |  |  | 3.12e+06 | 92
B34 |  |  |  |  |  | 3.53e+06 | 324
B35 |  |  |  |  |  | 3.77e+06 | 300
B36 |  |  |  |  |  | 3.43e+06 | 535
B37 |  |  |  |  |  | 3.78e+06 | 664
